Values of other authors as cited in paper PMC5837126.

Molecular target: IL-2Rβγc (intermediate-affinity IL-2R) (Homo sapiens) (UniProt P14784)
Chain of UniProt P14784 (P14784 27-240, chain 1 of 2): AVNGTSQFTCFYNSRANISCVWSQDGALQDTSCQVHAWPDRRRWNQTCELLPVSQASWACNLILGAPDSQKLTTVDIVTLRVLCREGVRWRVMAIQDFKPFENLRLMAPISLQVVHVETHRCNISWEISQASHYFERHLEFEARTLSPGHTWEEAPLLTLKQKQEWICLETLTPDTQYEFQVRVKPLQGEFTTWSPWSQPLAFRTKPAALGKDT
Chain of UniProt P14784 (P31785 23-262, chain 2 of 2, further chain): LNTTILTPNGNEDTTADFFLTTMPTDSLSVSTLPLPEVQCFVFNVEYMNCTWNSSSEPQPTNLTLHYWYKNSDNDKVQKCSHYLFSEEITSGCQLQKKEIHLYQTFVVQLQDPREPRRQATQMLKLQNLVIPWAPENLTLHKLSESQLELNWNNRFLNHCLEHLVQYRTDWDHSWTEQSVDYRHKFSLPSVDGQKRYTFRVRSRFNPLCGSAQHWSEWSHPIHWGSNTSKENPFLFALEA

IL-2 (from UniProt P60568)
Kd: 1 nM
